Experimental findings from patent US20110263451A1, “BIOLOGICAL MARKERS PREDICTIVE OF RHEUMATOID ARTHRITIS RESPONSE TO LYMPHOTOXIN ANTAGONISTS” (GENENTECH, INC, priority 2008, published 2011) are described below.

Assay [1] deals with solLTαβ. The experiment in a line: solLTαβ levels in serum of CIA mice (murine LTαβ ECLA). In kind it is in vivo, mouse (DBA-1J). To be noted: 6 mg/kg s.c. three times weekly, treated for 11 days, FIG. 4A. As to the method: (§1) Soluble mouse LTαβ was measured using streptavidin coated 96-Well Microtiter plates (Meso Scale Discovery). Wells were then blocked with 150 uL of PBS containing 5% bovine serum albumin for 1-2 hours. Twenty-five uL per well of 1 μg/ml murine LTβR-Fc-biotin (R&D Systems) diluted in PBS/0.05% Tween® was then incubated with the blocked plate for 30 minutes. The wells were washed 6× with PBS containing 0.05% Tween®-20 (PBS/Tween®) and a titration curve of recombinant mouse LTα1β2 (R&D Systems), controls and unknown test samples diluted in high salt assay diluent (PBS, 0.5% BSA, 0.05% Tween® 20, 10 ppm Proclin, 5 mM EDTA, 0.2% BGG, 0.25% CHAPS+3.5 mM NaCl pH 7.4) were added at 25 μl/well and incubated for 2 hours. The wells were washed 6× with PBS/Tween® and an anti-LTα monoclonal antibody (N3EV) (Genentech) labeled with SULFO-TAG® NHS (Meso Scale Discovery) was diluted to 3 ug/ml in assay diluent and added to the wells at 25 μl/well for 1 hour. The plate was washed with wash buffer 6× and 150 μl/well of Read Buffer T (Meso Scale Discovery) diluted 1:2 in H20 was added to the plate. The plate was immediately read on an MA6000 SECTOR™ Imager (Meso Scale Discovery). A weighted 4-parameter fit curve was plotted using XLFit (Guildford, UK) from the resulting standard curve values and unknown concentrations were extrapolated. […]

For assay [2], the system named is solLTαβ. The experiment in a line: solLTαβ levels in serum of EAE mice (murine LTαβ ECLA). In kind it is in vivo, mouse (SJL/J). The note with it: 6 mg/kg s.c. three times a week, FIG. 3. As for the experimental part: as §1, with “The wells were washed 6× with PBS/Tween® and an anti-LTα monoclonal antibody (N3EV) (Genentech) labeled with SULFO-TAG® NHS (Meso Scale Discovery) was diluted to 3 ug/ml in assay diluent and added to the wells at 25 μl/well for 1 hour.” left out, “Discovery).” for “Discovery). A weighted 4-parameter fit curve was plotted using XLFit (Guildford, UK) from the resulting standard curve values and unknown concentrations were extrapolated.”
Female SJL/J mice were immunized intradermally at the base of the tail with 200 μl of emulsion containing 150 μg of peptide PLP 139-151 in 100 μl of PBS and 100 μl of CFA. […] Animals were evaluated daily for clinical signs using the same grading system as for the transgenic mice.

B1: muLTβR-Fc: recombinant murine LTβ receptor conjugated to an immunoglobulin Fc region (murine IgG2a Fc) (protein)
chain: QLVPPYRIENQTCWDQDKEYYEPMHDVCCSRCPPGEFVFAVCSRSQDTVCKTCPHNSYNEHWNHLSTCQLCRPCDIVLGFEEVAPCTSDRKAECRCQPGMSCVYLDNECVHCEEERLVLCQPGTEAEVTDEIMDTDVNCVPCKPGHFQNTSSPRARCQPHTRCEIQGLVEAAPGTSYSDTICKNPPEPGAML
modifications: left off: a dimerising Fc or GST
For the molecule B1, the “solLTαβ levels in serum” value in the assay with solLTαβ [1] and in the assay on solLTαβ [2] was “Elevated” each time.
